B1: DVD527 (bispecific antibody, human IgG1, kappa)
heavy: not shown
light: QAVVTQESALTTSPGETVTLTCRSSTGAVTTSNYANWVQEKPDHLFTGLIGGTNNRAPGVPARFSGSLIGDKAALTITGAQTEDEAIYFCALWYSNHWVFGGGTKLTVLGQPKAAPDIQMTQSPSSLSASVGDRVTITCRASQVIRRSLAWYQQKPGKAPKLLIYAASNLASGVPSRFSGSGSGTDFTLTISSLQPEDFATYYCQQSNTSPLTFGQGTKVEIKRTVAAPSVFIFPPSDEQLKSGTASVVCLLNNFYPREAKVQWKVDNALQSGNSQESVTEQDSKDSTYSLSSTLTLSKADYEKHKVYACEVTHQGLSSPVTKSFNRGEC
notes: DVD-Ig; N-term; AB073 (DLL4), C-term; AB071 (VEGF); HC linker long, LC linker short; also called DVD527H; DVD527L
B2: DVD473 (bispecific antibody, human IgG1, kappa)
heavy: not shown
light: DIQMTQSPSSLSASVGDRVTITCRASQDVSTAVAWYQQKPGKAPKLLIYSASFLYSGVPSRFSGSGSGTDFTLTISSLQPEDFATTYYCQQSYTGTVTFGQGTKVEIKRTVAAPSVFIFPPDIQMTQSPSSLSASVGDRVTITCRASQVIRRSLAWYQQKPGKAPKLLIYAASNLASGVPSRFSGSGSGTDFTLTISSLQPEDFATYYCQQSNTSPLTFGQGTKVEIKRTVAAPSVFIFPPSDEQLKSGTASVVCLLNNFYPREAKVQWKVDNALQSGNSQESVTEQDSKDSTYSLSSTLTLSKADYEKHKVYACEVTHQGLSSPVTKSFNRGEC
notes: DVD-Ig; N-term; AB015 (DLL4), C-term; AB071 (VEGF); HC linker long, LC linker long; also called DVD473H; DVD473L
B3: DVD485 (bispecific antibody, human IgG1, kappa)
heavy: not shown
light: DIQMTQSPSSLSASVGDRVTITCRASQDVSTAVAWYQQKPGKAPKLLIYSASFLYSGVPSRFSGSGSGTDFTLTISSLQPEDFATTYYCQQSYTGTVTFGQGTKVEIKRTVAAPSVFIFPPDIQMTQSPSSLSASVGDRVTITCRASQVIRRSLAWYQQKPGKAPKLLIYAASNLASGVPSRFSGSGSGTDFTLTISSLQPEDFATYYCQQSNTSPLTFGQGTKVEIKRTVAAPSVFIFPPSDEQLKSGTASVVCLLNNFYPREAKVQWKVDNALQSGNSQESVTEQDSKDSTYSLSSTLTLSKADYEKHKVYACEVTHQGLSSPVTKSFNRGEC
notes: DVD-Ig; N-term; AB015 (DLL4), C-term; AB071 (VEGF); HC linker short, LC linker long; also called DVD485H; DVD485L
B4: DVD467 (bispecific antibody, human IgG1, kappa)
heavy: not shown
light: DIQMTQSPSSLSASVGDRVTITCRASQDVSTAVAWYQQKPGKAPKLLIYSASFLYSGVPSRFSGSGSGTDFTLTISSLQPEDFATTYYCQQSYTGTVTFGQGTKVEIKRTVAAPDIQMTQSPSSLSASVGDRVTITCRASQVIRRSLAWYQQKPGKAPKLLIYAASNLASGVPSRFSGSGSGTDFTLTISSLQPEDFATYYCQQSNTSPLTFGQGTKVEIKRTVAAPSVFIFPPSDEQLKSGTASVVCLLNNFYPREAKVQWKVDNALQSGNSQESVTEQDSKDSTYSLSSTLTLSKADYEKHKVYACEVTHQGLSSPVTKSFNRGEC
notes: DVD-Ig; N-term; AB015 (DLL4), C-term; AB071 (VEGF); HC linker short, LC linker short; also called DVD467H; DVD467L
B5: DVD479 (bispecific antibody, human IgG1, kappa)
heavy: not shown
light: DIQMTQSPSSLSASVGDRVTITCRASQDVSTAVAWYQQKPGKAPKLLIYSASFLYSGVPSRFSGSGSGTDFTLTISSLQPEDFATTYYCQQSYTGTVTFGQGTKVEIKRTVAAPDIQMTQSPSSLSASVGDRVTITCRASQVIRRSLAWYQQKPGKAPKLLIYAASNLASGVPSRFSGSGSGTDFTLTISSLQPEDFATYYCQQSNTSPLTFGQGTKVEIKRTVAAPSVFIFPPSDEQLKSGTASVVCLLNNFYPREAKVQWKVDNALQSGNSQESVTEQDSKDSTYSLSSTLTLSKADYEKHKVYACEVTHQGLSSPVTKSFNRGEC
notes: DVD-Ig; N-term; AB015 (DLL4), C-term; AB071 (VEGF); HC linker long, LC linker short; also called DVD479H; DVD479L
B6: DVD491 (bispecific antibody, human IgG1, kappa)
heavy: not shown
light: DIQMTQSSSYLSVSLGGRVTITCKASDHINNWLAWYQQKPGNAPRLLISGATSLETGVPSRFSGSGSGKDYTLSITSLQTEDVATYYCQQYWSIPLTFGAGTKLELKRTVAAPDIQMTQSPSSLSASVGDRVTITCRASQVIRRSLAWYQQKPGKAPKLLIYAASNLASGVPSRFSGSGSGTDFTLTISSLQPEDFATYYCQQSNTSPLTFGQGTKVEIKRTVAAPSVFIFPPSDEQLKSGTASVVCLLNNFYPREAKVQWKVDNALQSGNSQESVTEQDSKDSTYSLSSTLTLSKADYEKHKVYACEVTHQGLSSPVTKSFNRGEC
notes: DVD-Ig; N-term; AB072 (DLL4), C-term; AB071 (VEGF); HC linker short, LC linker short; also called DVD491H; DVD491L
B7: DVD451 (bispecific antibody, human IgG1, kappa, L234A L235A)
heavy: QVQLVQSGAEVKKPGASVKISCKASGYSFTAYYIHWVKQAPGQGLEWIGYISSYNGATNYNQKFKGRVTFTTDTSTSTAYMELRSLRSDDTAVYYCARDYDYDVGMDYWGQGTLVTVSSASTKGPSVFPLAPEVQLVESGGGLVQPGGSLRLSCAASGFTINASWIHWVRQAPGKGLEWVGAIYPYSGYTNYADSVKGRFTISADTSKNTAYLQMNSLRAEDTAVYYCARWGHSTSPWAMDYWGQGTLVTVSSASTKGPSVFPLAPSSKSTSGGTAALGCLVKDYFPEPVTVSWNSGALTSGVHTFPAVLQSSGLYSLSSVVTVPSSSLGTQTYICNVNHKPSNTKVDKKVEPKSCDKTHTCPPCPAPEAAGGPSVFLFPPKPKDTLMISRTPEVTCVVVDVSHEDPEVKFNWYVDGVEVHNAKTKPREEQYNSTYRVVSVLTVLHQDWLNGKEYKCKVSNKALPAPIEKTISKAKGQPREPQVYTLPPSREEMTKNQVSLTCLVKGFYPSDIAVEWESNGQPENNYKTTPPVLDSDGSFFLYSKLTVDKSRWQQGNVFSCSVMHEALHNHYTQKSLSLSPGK
light: DIVMTQSPDSLAVSLGERATISCRASESVDNYGISFMKWFQQKPGQPPKLLIYAASNQGSGVPDRFSGSGSGTDFTLTISSLQAEDVAVYYCQQSKEVPWTFGGGTKVEIKRTVAAPSVFIFPPDIQMTQSPSSLSASVGDRVTITCRASQVIRRSLAWYQQKPGKAPKLLIYAASNLASGVPSRFSGSGSGTDFTLTISSLQPEDFATYYCQQSNTSPLTFGQGTKVEIKRTVAAPSVFIFPPSDEQLKSGTASVVCLLNNFYPREAKVQWKVDNALQSGNSQESVTEQDSKDSTYSLSSTLTLSKADYEKHKVYACEVTHQGLSSPVTKSFNRGEC
notes: DVD-Ig; N-term; AB069 (DLL4), C-term; AB071 (VEGF); HC linker long, LC linker long; also called DVD451H; DVD451L
B8: DVD463 (bispecific antibody, human IgG1, kappa)
heavy: not shown
light: DIVMTQSPDSLAVSLGERATISCRASESVDNYGISFMKWFQQKPGQPPKLLIYAASNQGSGVPDRFSGSGSGTDFTLTISSLQAEDVAVYYCQQSKEVPWTFGGGTKVEIKRTVAAPSVFIFPPDIQMTQSPSSLSASVGDRVTITCRASQVIRRSLAWYQQKPGKAPKLLIYAASNLASGVPSRFSGSGSGTDFTLTISSLQPEDFATYYCQQSNTSPLTFGQGTKVEIKRTVAAPSVFIFPPSDEQLKSGTASVVCLLNNFYPREAKVQWKVDNALQSGNSQESVTEQDSKDSTYSLSSTLTLSKADYEKHKVYACEVTHQGLSSPVTKSFNRGEC
notes: DVD-Ig; N-term; AB069 (DLL4), C-term; AB071 (VEGF); HC linker short, LC linker long; also called DVD463H; DVD463L

biological target: T1, VEGF (UniProt P15692-4 27-191); assay: BIACORE SPR
T1 construct: Bought reagent; also called vascular endothelial growth factor
T1 sequence (P15692 other isoform, or with tags, fused parts or gaps limits assumed): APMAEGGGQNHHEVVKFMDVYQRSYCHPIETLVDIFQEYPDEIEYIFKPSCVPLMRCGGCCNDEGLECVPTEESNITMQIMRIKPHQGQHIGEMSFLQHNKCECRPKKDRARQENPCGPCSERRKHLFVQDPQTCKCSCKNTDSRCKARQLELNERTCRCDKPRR

Binder	Kd [pM]	koff [s⁻¹]	kon [M⁻¹ s⁻¹]
B1	842	0.000446	529000
B2	1270	0.000265	209000
B3	372	–	–
B4	1330	0.000236	177000
B5	860	0.000257	299000
B6	720	0.000245	340000
B7	11.5	1.06e-06	92200
B8	771	0.000479	621000

From US20100260668A1 (published 2010)
